# Laboratory results as given in PMC10711807.
# B1: IRAK1, recombinant from bacteria, P51617 1-712 (enzyme)
# chain: MAGGPGPGEPAAPGAQHFLYEVPPWVMCRFYKVMDALEPADWCQFAALIVRDQTELRLCERSGQRTASVLWPWINRNARVADLVHILTHLQLLRARDIITAWHPPAPLPSPGTTAPRPSSIPAPAEAEAWSPRKLPSSASTFLSPAFPGSQTHSGPELGLVPSPASLWPPPPSPAPSSTKPGPESSVSLLQGARPFPFCWPLCEISRGTHNFSEELKIGEGGFGCVYRAVMRNTVYAVKRLKENADLEWTAVKQSFLTEVEQLSRFRHPNIVDFAGYCAQNGFYCLVYGFLPNGSLEDRLHCQTQACPPLSWPQRLDILLGTARAIQFLHQDSPSLIHGDIKSSNVLLDERLTPKLGDFGLARFSRFAGSSPSQSSMVARTQTVRGTLAYLPEEYIKTGRLAVDTDTFSFGVVVLETLAGQRAVKTHGARTKYLKDLVEEEAEEAGVALRSTQSTLQAGLAADAWAAPIAMQIYKKHLDPRPGPCPPELGLGLGQLACCCLHRRAKRRPPMTQVYERLEKLQAVVAGVPGHSEAASCIPPSPQENSYVSSTGRAHSGAAPWQPLAAPSGASAQAAEQLQRGPNQPVESDESLGGLSAALRSWHLTPSCPLDPAPLREAGCPQGDTAGESSWGSGPGSRPTAVEGLALGSSASSSSEPPQIIINPARQKMVQKLALYEDGALDSLQLLSSSSLPGLGLEQDRQGPEESDEFQS
# modifications: here or on the partner: biotin (biotinylated TOLLIP; site not told)
# Target: TOLLIP, recombinant from bacteria, biotinylated (human), Q9H0E2
# Assay: BLI
# Conditions: remark: other sources report otherwise
binder,measurement,value
B1,Kd,91.5 nM
